# T1: Interleukin-1 receptor type 1 (IL-1R1) on cells (human, UniProt P14778 18-569)
# T1 sequence (looked up): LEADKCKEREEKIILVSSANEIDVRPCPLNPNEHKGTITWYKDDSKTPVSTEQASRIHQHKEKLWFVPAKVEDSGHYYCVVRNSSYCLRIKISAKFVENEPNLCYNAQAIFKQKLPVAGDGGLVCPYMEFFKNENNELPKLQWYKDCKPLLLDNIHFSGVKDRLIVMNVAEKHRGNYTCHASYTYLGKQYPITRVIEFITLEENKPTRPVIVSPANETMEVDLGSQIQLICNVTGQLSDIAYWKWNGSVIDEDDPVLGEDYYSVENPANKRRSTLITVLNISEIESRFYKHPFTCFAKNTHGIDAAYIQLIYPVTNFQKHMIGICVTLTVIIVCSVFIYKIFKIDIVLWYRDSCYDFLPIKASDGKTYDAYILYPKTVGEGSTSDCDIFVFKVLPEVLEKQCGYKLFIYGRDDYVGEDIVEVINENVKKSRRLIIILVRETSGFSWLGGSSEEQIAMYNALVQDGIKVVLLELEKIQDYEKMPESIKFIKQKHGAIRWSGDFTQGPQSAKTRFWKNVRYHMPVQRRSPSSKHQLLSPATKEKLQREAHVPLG
# B1: DOM4-122-23 (other)
# VL: DIQMTQSPSSLSASVGDRVTITCRASQWIGRELRWYQQKPGKAPMFLIYHASRLQRGVPSRFSGSGSGTDFTLTISSLQPEDFATYYCQQYHGWPLTFGQGTKVEIKR
# B2: DOM4-122-6 (other)
# VL: DIQMTQSPSSLSASVGDRVTITCRASQWIGRELRWYQQKPGKAPMFLIYHASRLQSGVPSRFSGSGSGTDFTLTISSLQPEDFATYYCQQYHGWPLTFGQGTKVEIKR
# B3: DOM4-129-1 (other)
# VL: DIQMTQSPSSLSASVGDRVTITCRASQNIDRELRWYQQKPGKAPMFLIYHASRLQRGVPSRFSGSGSGTDFTLTISSLQPEDFATYYCQQYHDFPLTFGQGTKVEIKR
# B4: DOM4-130-3 (other)
# VL: DIQMTQSPSSLSASVGDRVTITCRASQDIYLNLDWYQQKPGKAPKLLIYGTSNLQSGVPSRFSGSGSGTDFTLTISSLQPEDFATYYCQPSFYFPYTFGQGTKVEIRR
# B5: DOM4-130-46 (other)
# VL: DIQMTQSPSSLSASVGDRVTITCRASQDIYLNLDWYQQKPGKAPKLLINFGSELQSGVPSRFSGSGSGTDFTLTISSLQPEDFATYYCQPSFYFPYTFGQGTKVEIRR
# Biological target: T1, Interleukin-1 receptor type 1 (IL-1R1) …
# Test: cell-based or functional assay
row,Binder,"ND50, inhibition of IL-1-induced IL-8 release from MRC-5 cells"
1,B1,~1 nM
2,B2,~10 nM
3,B3,~10 nM
4,B4,~30 nM
5,B5,~1 nM

# — patent US20090191217A1 (published 2009)
